Legend:
[1] = biological target: T1, Human Id1: Histidine (human, UniProt P41134 1-155, limits assumed); assay: ELISA, Ab 0.005 µg/ml
T1 construct: Fusion protein made in E. coli from vector pGW07; also called h-Id1: his; not shown: His tag
T1 sequence (looked up): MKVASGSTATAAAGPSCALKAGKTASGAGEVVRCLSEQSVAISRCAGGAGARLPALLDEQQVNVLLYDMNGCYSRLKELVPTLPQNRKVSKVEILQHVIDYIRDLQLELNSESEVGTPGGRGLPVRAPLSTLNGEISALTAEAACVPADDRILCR

[2] = biological target: T2, Mouse Id3: Histidine (mouse, UniProt P41133 1-119); assay: ELISA, Ab 0.005 µg/ml
T2 construct: Fusion protein made in E. coli from vector pGW07; also called m-Id3: His; Mouse Id3 (coated wells); not shown: His tag
T2 sequence: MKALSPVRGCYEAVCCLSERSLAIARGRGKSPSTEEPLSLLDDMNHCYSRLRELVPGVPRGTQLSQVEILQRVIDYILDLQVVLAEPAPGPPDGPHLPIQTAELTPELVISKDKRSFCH

[3] = biological target: T3, Mouse Id2: Histidine (mouse, UniProt P41136 1-134, limits assumed); assay: ELISA, Ab 0.005 µg/ml
T3 construct: Fusion protein made in E. coli from vector pGW07; also called m-Id2: His; not shown: His tag
T3 sequence (looked up): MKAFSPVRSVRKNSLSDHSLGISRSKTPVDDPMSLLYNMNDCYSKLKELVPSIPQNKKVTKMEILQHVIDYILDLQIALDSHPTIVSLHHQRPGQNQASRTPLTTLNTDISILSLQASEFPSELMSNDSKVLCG

[4] = biological target: T4, Mouse Id1: Histidine (mouse, UniProt P20067-2 1-148, limits assumed); assay: ELISA, Ab 0.005 µg/ml
T4 construct: Fusion protein made in E. coli from vector pGW07; also called m-Id1-His; not shown: His tag
T4 sequence (looked up): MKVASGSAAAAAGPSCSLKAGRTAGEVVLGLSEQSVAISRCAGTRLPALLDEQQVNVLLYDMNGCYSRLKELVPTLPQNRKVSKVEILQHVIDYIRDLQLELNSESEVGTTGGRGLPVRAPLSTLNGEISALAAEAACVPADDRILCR

[5] = biological target: T5, Human Id3: Histidine (human, UniProt Q02535 1-119 at identity 1.00)); assay: ELISA, Ab 0.005 µg/ml
T5 construct: Fusion protein made in E. coli from vector pGW07; also called h-Id3: His; Human Id3 (coated wells); not shown: His tag
T5 chain: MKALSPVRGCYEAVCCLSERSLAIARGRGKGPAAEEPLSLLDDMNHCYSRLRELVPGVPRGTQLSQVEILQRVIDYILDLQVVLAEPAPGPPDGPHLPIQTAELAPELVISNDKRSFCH

[6] = biological target: T6, Human Id2: Histidine (human, UniProt Q02363 1-134, limits assumed); assay: ELISA, Ab 0.005 µg/ml
T6 construct: Fusion protein made in E. coli from vector pGW07; also called h-Id2: His; not shown: His tag
T6 sequence (looked up): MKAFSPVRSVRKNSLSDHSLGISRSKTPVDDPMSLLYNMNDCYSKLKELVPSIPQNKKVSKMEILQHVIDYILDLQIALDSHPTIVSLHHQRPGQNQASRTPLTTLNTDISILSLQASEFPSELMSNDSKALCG

[7] = biological target: T3, Mouse Id2: Histidine; assay: ELISA, positive control (stated to be BCH-4/6-1) 0.50 µg/ml
Experimental: (§1) 1. Dispense 100 μL of antibody diluent, diluted rabbit monoclonal human Id3, and mouse/human Id3 hybridoma supernatants into appropriate wells. […] 2. Incubate at room temperature with mechanical shaking at 750 rpm for 90 minutes. [0165] 3. Remove the incubation mixture by flicking plate content into an appropriate waste container followed by rinsing the wells 5 times with distilled water. [0166] 4. Strike the wells sharply onto absorbent paper or paper towels to remove all residual water droplets. [0167] 5. Dispense 100 μL of 1:50,000 Goat Anti-Rabbit IgG-HRP Conjugate Reagent into each well. Gently mix for 5 seconds. [0168] 6. Incubate at room temperature with mechanical shaking at 750 rpm for 90 minutes. [0169] 7. Repeat procedures 3 and 4. [0170] 8. Dispense 100 μL of TMB Reagent into each well. Gently mix for 5 seconds. [0171] 9. Incubate at room temperature with mechanical shaking at 750 rpm for 20 minutes. […] 10. Add 100 μL of Stop Solution (1N HCl) into each well. [0173] 11. Gently mix for 10 seconds to ensure a complete mixing. [0174] 12. Read optical density at A450 nm.
(§2) The materials and method are the same as those described in Example 9 except the following.
(§3) Rabbit monoclonal anti-mouse Id3, hybridoma supernatant was used as the test antibody. Protein G purified, rabbit monoclonal anti-mouse/human Id3 antibody, BCH-4/6-1, 0.92 mg/ml in 0.25% BSA was used as positive controls.

[8] = biological target: T4, Mouse Id1: Histidine; assay: as above
Experimental: as §1, §2, §3

[9] = biological target: T5, Human Id3: Histidine; assay: as above
Experimental: as §1, §2, §3

[10] = biological target: T6, Human Id2: Histidine; assay: as above
Experimental: as §1, §2, §3

[11] = biological target: T1, Human Id1: Histidine; assay: ELISA, Ab 0.500 µg/ml
[12] = biological target: T3, Mouse Id2: Histidine; assay: ELISA, Ab 0.500 µg/ml
[13] = biological target: T4, Mouse Id1: Histidine; assay: ELISA, Ab 0.500 µg/ml
[14] = biological target: T5, Human Id3: Histidine; assay: ELISA, Ab 0.500 µg/ml
[15] = biological target: T6, Human Id2: Histidine; assay: ELISA, Ab 0.500 µg/ml

B1: rabbit monoclonal anti-mouse/human Id3, clone #BCH-4/#6-1 (antibody, V domains shown)
VH: QSVEESGGRLVTPGTPLTLTCTASGFSLSNVYIHWVRQAPGKGLEWIGYISDGDTARYATWAKGRFTISKTSSTTVNLKMTSLTTEDTATYFCARQGFNIWGPGTLVTVSL
VL: AVLTQTPSPVSAAVGGTVSISCQSSQSVWNNNWLSWFQQKPGQPPKLLIYETSKLESGVPSRFKGSGSGTQFTLTISDVQCDDAATYYCLGGYWTTSDNNVFGGGTEVVVK
notes: Rabbit IgG from a rabbit hybridoma; also called m/h Id3 MoAb 6-1
Q: What does the source list for B1?
A: A450 [1]: 0.075 A450; A450 [2]: 0.295 A450; A450 [3]: 0.073 A450; A450 [4]: 0.076 A450; A450 [5]: 0.248 A450; A450 [6]: 0.076 A450; A450 [7]: 3.1 A450; A450 [8]: 2.2 A450; A450 [9]: 2.83 A450; A450 [10]: 3.23 A450; A450 [11]: 0.062 A450; A450 [12]: 0.073 A450; A450 [13]: 0.067 A450; A450 [14]: 3.3 A450; A450 [15]: 0.062 A450
